# Biological target: the molecule itself
# Assay: crystal structure
protein,measurement,value
"human liver pyruvate kinase (L-PYK) with the S12D mimic of phosphorylation (enzyme, Cys436 partially oxidized to the sulfenic derivative (sulfenic acid)) not shown",stoichiometry N,4

# From article PMC3572911 (Biochemistry, 2013)
